From patent US20240209088A1
Values joined by “and” are separate entries in the source; they are usually repeats but may differ in a detail not shown here. Equal values may be shown once.

Key:
[1] = biological target: full-length human CD4 on cells (human) (UniProt P01730); test: flow cytometry of human PBMCs, donor 3, labeled anti-CD4 antibody with anti-CD3-FITC
[2] = biological target: full-length human CD4 on cells (human) (UniProt P01730); test: flow cytometry of human PBMCs, donor 2, labeled anti-CD4 antibody with anti-CD3-FITC
[3] = biological target: full-length human CD4 on cells (human) (UniProt P01730); test: flow cytometry of human PBMCs, donor 2, with anti-CD3-FITC; c (nM) ~1
[4] = biological target: full-length human CD4 on cells (human) (UniProt P01730); test: flow cytometry of human PBMCs, donor 1, labeled anti-CD4 antibody with anti-CD3-FITC
[5] = biological target: full-length human CD4 on cells (human) (UniProt P01730); test: flow cytometry of human PBMCs, donor 1, with anti-CD3-FITC; c (nM) ~1
[6] = biological target: full-length human CD4 on cells (human) (UniProt P01730); test: flow cytometry of human PBMCs, donor 3, with anti-CD3-FITC; c (nM) ~1
[7] = biological target: full-length human CD4 on cells (human) (UniProt P01730); test: flow cytometry of human PBMCs, donor 1, labeled Nb with anti-CD3-FITC
[8] = biological target: full-length human CD4 on cells (human) (UniProt P01730); test: flow cytometry of human PBMCs, donor 2, labeled Nb with anti-CD3-FITC
[9] = biological target: full-length human CD4 on cells (human) (UniProt P01730); test: flow cytometry of human PBMCs, donor 1, labeled Nb with anti-CD3-FITC; the same panel in Fig. 8A prints 0.62
[10] = biological target: full-length human CD4 on cells (human) (UniProt P01730); test: flow cytometry of human PBMCs, donor 3, labeled Nb with anti-CD3-FITC
[11] = biological target: full-length human CD4 on cells (human) (UniProt P01730); test: flow cytometry of human PBMCs, donor 1, labeled Nb with anti-CD3-FITC; remark: listed apart in the source
[12] = biological target: full-length human CD4 on cells (human) (UniProt P01730); test: flow cytometry of human PBMCs, donor 1, labeled Nb with anti-CD3-FITC; the same panel in Fig. 3A prints 0,82

percent of cells in the CD3+ CD4+ quadrant [1] [%] | percent of cells in the CD3- CD4+ quadrant [1] [%] | percent of cells in the CD3+ CD4+ quadrant [2] [%] | percent of cells in the CD3- CD4+ quadrant [2] [%] | Frequency CD3+ CD4+ (%) [3] [%] | percent of cells in the CD3+ CD4+ quadrant [4] [%] | percent of cells in the CD3- CD4+ quadrant [4] [%] | Frequency CD3+ CD4+ (%) [5] [%] | Frequency CD3+ CD4+ (%) [6] [%] | percent of cells in the CD3+ CD4+ quadrant [7] [%] | percent of cells in the CD3+ CD4+ quadrant [8] | percent of cells in the CD3- CD4+ quadrant [8] | percent of cells in the CD3- CD4+ quadrant [9] [%] | percent of cells in the CD3+ CD4+ quadrant [10] | percent of cells in the CD3- CD4+ quadrant [10] | percent of cells in the CD3+ CD4+ quadrant [11] [%] | percent of cells in the CD3- CD4+ quadrant [12] [%] | Substance
24.3 | 43.4 | 27 | 22.4 | 26.2 | 33.7 | 21.7 | 32.7 | 22.8 |  |  |  |  |  |  |  |  | anti-human CD4 antibody RPA-T4
 |  |  |  |  |  |  |  |  | 0.13 | 0.03% and 0.26% | 0.14% and 0.36% | 0.82 | 0.03% and 0.95% | 0.16% and 1.36% | 1.39 | 0.62 | non-specific fluorescently labeled GFP-binding Nb (VHH)
